From patent US20090175784A1

Assays:
[1] = target: human αVβ3/5 integrins on human tumor cells (A375.S2, MDA-MB-231, A2780, HT29, A549) (human) (UniProt P06756); assay: cell-based or functional assay; set-up: IC50 of doxorubicin, integrin targeted liposome-entrapped dox 90:1, murine melanoma B16-F10 cells (negative control): unit not given beside the values
[2] = target: murine αVβ3/5 integrin (murine melanoma cell line B16F10, negative control) (murine) (UniProt P43406); assay: cell-based or functional assay; set-up: IC50 of doxorubicin, integrin targeted liposome-entrapped dox 90:1, murine melanoma B16-F10 cells (negative control): unit not given beside the values
murine αVβ3/5 integrin (murine melanoma cell line B16F10, negative control) (murine), sequence (P43406 31-1044, form in doubt, chain 1 of 3): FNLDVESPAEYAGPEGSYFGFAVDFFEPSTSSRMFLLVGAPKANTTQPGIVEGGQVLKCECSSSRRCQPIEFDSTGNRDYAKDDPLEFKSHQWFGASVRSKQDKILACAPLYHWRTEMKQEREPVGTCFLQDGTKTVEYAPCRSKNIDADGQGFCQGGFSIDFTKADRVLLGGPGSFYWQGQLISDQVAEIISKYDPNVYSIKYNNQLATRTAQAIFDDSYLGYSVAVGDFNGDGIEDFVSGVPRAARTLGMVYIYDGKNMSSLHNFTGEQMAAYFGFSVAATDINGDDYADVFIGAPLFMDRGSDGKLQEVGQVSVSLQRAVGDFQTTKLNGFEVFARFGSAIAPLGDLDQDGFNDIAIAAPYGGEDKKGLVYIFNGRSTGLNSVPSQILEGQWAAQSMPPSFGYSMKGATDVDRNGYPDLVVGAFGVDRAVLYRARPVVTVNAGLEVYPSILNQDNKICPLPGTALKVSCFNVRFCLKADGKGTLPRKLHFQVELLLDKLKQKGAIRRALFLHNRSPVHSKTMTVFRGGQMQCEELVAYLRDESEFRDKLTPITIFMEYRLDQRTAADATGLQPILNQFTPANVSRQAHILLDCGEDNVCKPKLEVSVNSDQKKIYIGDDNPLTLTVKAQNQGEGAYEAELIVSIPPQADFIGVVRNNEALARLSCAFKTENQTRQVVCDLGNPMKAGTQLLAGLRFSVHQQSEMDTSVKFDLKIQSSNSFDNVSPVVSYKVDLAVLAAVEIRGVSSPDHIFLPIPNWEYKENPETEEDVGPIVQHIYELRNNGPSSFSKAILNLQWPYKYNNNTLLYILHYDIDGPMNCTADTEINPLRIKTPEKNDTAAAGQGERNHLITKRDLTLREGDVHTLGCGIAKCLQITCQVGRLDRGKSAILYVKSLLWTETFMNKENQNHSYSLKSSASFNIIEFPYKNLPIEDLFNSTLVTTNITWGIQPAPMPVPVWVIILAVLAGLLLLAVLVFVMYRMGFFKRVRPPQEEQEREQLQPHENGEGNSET
murine αVβ3/5 integrin (murine melanoma cell line B16F10, negative control) (murine), sequence (O54890 26-787, form in doubt, chain 2 of 3, further chain): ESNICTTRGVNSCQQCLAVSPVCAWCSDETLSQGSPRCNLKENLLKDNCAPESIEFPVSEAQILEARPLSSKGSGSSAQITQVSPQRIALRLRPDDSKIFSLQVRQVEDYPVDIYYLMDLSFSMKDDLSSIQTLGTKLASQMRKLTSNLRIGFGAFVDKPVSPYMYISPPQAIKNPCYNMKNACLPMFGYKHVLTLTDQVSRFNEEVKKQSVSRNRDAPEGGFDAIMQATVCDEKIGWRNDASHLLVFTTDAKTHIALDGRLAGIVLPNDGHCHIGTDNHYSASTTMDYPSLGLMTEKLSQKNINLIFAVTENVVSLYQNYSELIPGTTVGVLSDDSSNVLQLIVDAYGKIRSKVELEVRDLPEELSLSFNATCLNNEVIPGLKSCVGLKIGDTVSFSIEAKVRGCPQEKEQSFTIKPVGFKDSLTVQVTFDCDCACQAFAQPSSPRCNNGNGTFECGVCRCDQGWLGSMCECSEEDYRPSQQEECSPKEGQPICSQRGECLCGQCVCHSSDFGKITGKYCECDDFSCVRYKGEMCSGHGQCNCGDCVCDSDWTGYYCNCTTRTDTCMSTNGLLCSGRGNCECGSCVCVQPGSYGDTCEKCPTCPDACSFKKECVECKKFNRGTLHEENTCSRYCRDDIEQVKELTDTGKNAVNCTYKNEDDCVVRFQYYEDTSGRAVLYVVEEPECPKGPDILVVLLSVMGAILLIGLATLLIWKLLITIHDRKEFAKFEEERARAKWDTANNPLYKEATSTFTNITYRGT
murine αVβ3/5 integrin (murine melanoma cell line B16F10, negative control) (murine), sequence (O70309 24-798, form in doubt, chain 3 of 3, further chain): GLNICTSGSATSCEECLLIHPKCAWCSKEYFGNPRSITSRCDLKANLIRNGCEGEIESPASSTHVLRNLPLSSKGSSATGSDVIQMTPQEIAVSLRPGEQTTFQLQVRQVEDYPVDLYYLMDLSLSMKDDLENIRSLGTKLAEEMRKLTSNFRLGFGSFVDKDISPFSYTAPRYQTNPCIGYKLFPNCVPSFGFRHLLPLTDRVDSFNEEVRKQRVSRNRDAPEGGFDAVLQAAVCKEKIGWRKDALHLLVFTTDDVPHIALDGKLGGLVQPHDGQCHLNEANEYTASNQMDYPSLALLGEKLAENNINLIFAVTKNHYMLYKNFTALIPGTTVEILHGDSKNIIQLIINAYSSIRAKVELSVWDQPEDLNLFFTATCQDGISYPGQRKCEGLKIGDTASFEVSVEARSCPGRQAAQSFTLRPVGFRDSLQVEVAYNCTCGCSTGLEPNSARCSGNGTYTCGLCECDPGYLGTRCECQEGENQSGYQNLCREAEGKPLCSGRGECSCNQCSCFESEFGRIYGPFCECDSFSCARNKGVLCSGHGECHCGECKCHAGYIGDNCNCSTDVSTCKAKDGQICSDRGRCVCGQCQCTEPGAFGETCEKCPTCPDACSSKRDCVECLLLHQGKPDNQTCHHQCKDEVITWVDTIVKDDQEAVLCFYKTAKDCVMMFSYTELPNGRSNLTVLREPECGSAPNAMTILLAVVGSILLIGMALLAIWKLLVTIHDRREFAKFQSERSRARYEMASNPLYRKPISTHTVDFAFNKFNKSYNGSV

Increase (ratio of IC50 of liposome-entrapped dox to IC50 of integrin-targeted 90:1), breast cancer MDA-MB-231 cells [1]: 5 fold
Increase (ratio of IC50 of liposome-entrapped dox to IC50 of integrin-targeted 90:1), colon cancer HT29 cells [1]: 1.1 fold
Increase (ratio of IC50 of liposome-entrapped dox to IC50 of integrin-targeted 90:1), lung cancer A549 cells [1]: 1 fold
Increase (ratio of IC50 of liposome-entrapped dox to IC50 of integrin-targeted 90:1), melanoma A375.S2 cells [1]: 29 fold
Increase (ratio of IC50 of liposome-entrapped dox to IC50 of integrin-targeted 90:1), ovarian cancer A2780 cells [1]: 29 fold
IC50 of doxorubicin, integrin targeted liposome-entrapped dox 90:1, murine melanoma B16-F10 cells (negative control) [2]: > 200
Increase (ratio of IC50 of liposome-entrapped dox to IC50 of integrin-targeted 90:1), murine melanoma B16-F10 cells (negative control) [2]: 1 fold
Substance: CNTO95 Fab′ (from pepsin F(ab′)2, reduced and reoxidized) conjugated to MalPEG-DSPE on the surface of liposomes
